Drawing on PMC4028238, this text covers relative binding affinity (IC50 ratio vs BV02) (IC50(BV02)/IC50) for 3 sequences.

The series has as its system Influenza A virus hemagglutinin (whole virus as assayed) (Influenza A virus H3N2 A/Texas/1977 (A/Texas/1/77)). The experiment in a line: competition ELISA. The conditions noted are these: PBS, room temperature, […] (0.5-500 nM) […] (5 nM).

On to “AACGCTCACTCCCCCCCCCCCACCCCCCCCCCCACCCCCCCCCCCAGTGAGCGTT [BV35o]”, for which the relative binding affinity (IC50 ratio vs BV02) (IC50(BV02)/IC50) came to 9.92. On to GCTGAGTCTCAAAACCGCAATACACTGGTT [BV26], for which the relative binding affinity (IC50 ratio vs BV02) (IC50(BV02)/IC50) worked out at 0.792. The value for “AACGCTCACTAACCCCCCCCCCACCCCCCCCCCACCCCCCCCCCAAGTGAGCGTT [BV45]” was 14.2.
